Reference: patent publication US20250051454A1 (DUKE UNIVERSITY, published 2025)

How the values were obtained:
[1] = molecular target: T1, HLA-E-RL9HIV single chain trimer on transfected 293T cells (human, UniProt P61769 21-119; P13747 22-358); test: flow cytometry, SCT-transfected 293T cells, MFI bar chart [E]
T1 construct: also called control HLA-E-peptide complex

[2] = molecular target: T2, HLA-E-RL9SIV single chain trimer on transfected 293T cells (human, UniProt P61769 21-119; P13747 22-358); test: as above
T2 construct: also called control HLA-E-peptide complex

Binder	binding result [1]	binding result [2]
CA118 (antibody, V domains shown) VH: EVQLVESGGGLVKPGGSLRLSCAASGFTFSSYSMNWVRQAPGKGLEWVSSISSSSSYIYYADSVKGRFTISRDNAKNSLYLQMNSLRAEDTAVYYCARGWQQLAYWDYWGQGTLVTVSS VL: SYELTQPPSVSVAPGQTARITCGGNNIGSKSVHWYQQKPGQAPVLVVYDDSDRPSGIPERFSGSNSGNTATLTISRVEAGDEADYYCQVWDSSSDHYVFGTGTKVTVL	no binding (tested: 2 µg/ml)	no binding (tested: 2 µg/ml)
CA124 (antibody, V domains shown) VH: EVQLVQSGGGLVKPGGSLRLSCAASGFTFSDYYMSWIRQAPGKGLEWVSYISSSGSTIYYADSVKGRFTISRDNAKNSLYLQMNSLRAEDTAVYYCASGFSSWGADDYWGQGTLVTVSS VL: DIVMTQSPSSLSASVGDRVTITCRASQGISNYLAWFQQKPGKAPKSLIYAASSLQSGVPSKFSGSGSGTDFTLTISSLQPEDFATYYCQQYNSYPLTFGQGTKLEIK	no binding (tested: 2 µg/ml)	no binding (tested: 2 µg/ml)
CA149 (antibody, V domains shown) VH: EVQLVESGGGLVKPGGSLRLSCAASGFTFSSYSMNWVRQAPGKGLEWVSSISSSSSYIYYADSVKGRFTISRDNAKNSLYLQMNSLRAEDTAVYYCARCAAGFVPDAFDIWGQGTMVTVSS VL: not shown	no binding (tested: 2 µg/ml)	no binding (tested: 2 µg/ml)
CA125 (antibody, V domains shown) VH: EVQLVESGGGLVKPGGSLRLSCAASGFTFSSYSMNWVRQAPGKGLEWVSSISSSSSYIYYADSVKGRFTISRDNAKNSLYLQMNSLRAEDTAVYYCARVVDTAMGDAFDIWGQGTMVTVSS VL: not shown	no binding (tested: 2 µg/ml)	no binding (tested: 2 µg/ml)
CA134 (antibody, V domains shown) VH: EVQLVESGGGLVKPGGSLRLSCAASGFTFSSYSMNWVRQAPGKGLEWVSSISSSSSYIYYADSVKGRFTISRDNAKNSLYLQMNSLRAEDTAVYYCARVFGEQLVSFFDYWGQGTLVTVSS VL: not shown	no binding (tested: 2 µg/ml)	no binding (tested: 2 µg/ml)
CA128 (antibody, V domains shown) VH: QVQLVQSGGGLVKPGGSLRLSCAASGFTFSDYYMSWIRQAPGKGLEWVSYISSSGSTIYYADSVKGRFTISRDNAKNSLYLQMNSLRAEDTAVYYCARDSGSFVGVFDYWGQGTLVTVSS VL: not shown	no binding (tested: 2 µg/ml)	no binding (tested: 2 µg/ml)
CA131 (antibody, V domains shown) VH: QVQLQESGSGLVKPSQTLSLTCAVSGGSISSGGYSWSWIRQPPGKGLEWIGYIYHSGSTYYNPSLKSRVTISVDRSKNQFSLKLSSVTAADTAVYYCATGGGHKELGGWGPRGTLVTVSS VL: not shown	no binding (tested: 2 µg/ml)	no binding (tested: 2 µg/ml)
CA139 (antibody, V domains shown) VH: not shown VL: DIVMTQSPSSLSASVGDRVTITCRASQGISNYLAWFQQKPGKAPKSLIYAASSLQSGVPSKFSGSGSGTDFTLTISSLQPEDFATYYCQQYNSYPLTFGGGTKVEIK	no binding (tested: 2 µg/ml)	no binding (tested: 2 µg/ml)
CA141 (antibody, V domains shown) VH: QVQLQESGGGLVKPGGSLRLSCAASGFTFSSYSMNWVRQAPGKGLEWVSSISSSSSYIYYADSVKGRFTISRDNAKNSLYLQMNSLRAEDTAVYYCARASENGDDAFDIWGQGTMVTVSS VL: EIVLTQSPATLSLSPGERATLSCRASQSVSSYLAWYQQKPGQAPRLLIYDASNRATGIPARFSGSGSGTDFTLTISSLEPEDFAVYYCQQRSNWPPYTFGQGTKLEIK	no binding (tested: 2 µg/ml)	no binding (tested: 2 µg/ml)
CA143 (human antibody on a human IgG1 backbone) (antibody, V domains shown) VH: QVQLVQSGGGLVKPGGSLRLSCAASGFTFSSYSMNWVRQAPGKGLEWVSSISSSSSYIYYADSVKGRFTISRDNAKNSLYLQMNSLRAEDTAVYYCARDSLPAGDYFDYWGQGTLVTVSS VL: DIQLTQSPSFLSASVGDRVTITCRASQGISSYLAWYQQKPGKAPKLLIYAASTLQSGVPSRFSGSGSGTEFTLTISSLQPEDFATYYCQQLNSYPQTTFGGGTKVEIK	no binding (tested: 2 µg/ml)	no binding (tested: 2 µg/ml)
CA144 (antibody, V domains shown) VH: QVQLVQSGGGLVKPGGSLRLSCAASGFTFSSYSMNWVRQAPGKGLEWVSSISSSSSYIYYADSVKGRFTISRDNAKNSLYLQMNSLRAEDTAVYYCARDRVEMAFHFDYWGQGTLVTVSS VL: not shown	no binding (tested: 2 µg/ml)	no binding (tested: 2 µg/ml)
CA145 (antibody, V domains shown) VH: EVQLVESGGGLVKPGGSLRLSCAASGFTFSDYYMSWIRQAPGKGLEWVSYISSSGSTIYYADSVKGRFTISRDNAKNSLYLQMNSLRAEDTAVYYCARDVLELRWWFDPWGQGTLVTVSS VL: not shown	no binding (tested: 2 µg/ml)	no binding (tested: 2 µg/ml)
CA146 (antibody, V domains shown) VH: EVQLVQSGGGVVQPGRSLRLSCAASGFTFSSYGMHWVRQAPGKGLEWVAVISYDGSNKYYADSVKGRFTISRDNSKNTLYLQMNSLRAEDTAVYYCAKDRYSIVGATSNGMDVWGQGTTVTVSS VL: not shown	no binding (tested: 2 µg/ml)	no binding (tested: 2 µg/ml)
CA148 (antibody, V domains shown) VH: QVQLVQSGAEVKKPGASVKVSCKASGYTFTSYGISWVRQAPGQGLEWMGWISAYNGNTNYAQKLQGRVTMTTDTSTSTAYMELRSLRSDDTAVYYCARTPGDEYYYYYYMDVWGKGTTVTVSS VL: EIVLTQSPATLSLSPGERATLSCRASQSVSSYLAWYQQKPGQAPRLLIYDASNRATGIPARFSGSGSGTDFTLTISSLEPEDFAVYYCQQRSNWPRTFGQGTKLEIK	no binding (tested: 2 µg/ml)	no binding (tested: 2 µg/ml)
CA150 (antibody, V domains shown) VH: QVQLVQSGAEVKKPGSSVKVSCKASGGTFSSYAISWVRQAPGQGLEWMGGIIPIFGTANYAQKFQGRVTITADESTSTAYMELSSLRSEDTAVYYCASFPNCSSTSCYYYYYMDVWGKGTTVTVSS VL: QSALTQPASVSGSPGQSITISCTGTSSDVGGYNYVSWYQQHPGKAPKLMIYDVSNRPSGVSNRFSGSKSGNTASLTISGLQAEDEADYYCSSYTSSSTRDVVFGGGTKLTVL	no binding (tested: 2 µg/ml)	no binding (tested: 2 µg/ml)
CA171 (antibody, V domains shown) VH: EVQLVESGGGLVQPGGSLRLSCAASGFTFSSYSMNWVRQAPGKGLEWVSYISSSSSTIYYADSVKGRFTISRDNAKNSLYLQMNSLRAEDTAVYYCARTFYSNYLDAFDIWGQGTMVTVSS VL: EIVLTQSPDTLSMCPGERATLSCRASQSVSSYLAWYQQKPGQAPRLLIYDASNRATGIPARFSGSGSGTDFTLTISSLEPEDFAVYYCQQRSNWLSMYTFGQGTKLEIK	no binding (tested: 2 µg/ml)	
